# B1: Purified human active MST1 (Upstate Biotechnology) (protein)
# chain: METVQLRNPPRRQLKKLDEDSLTKQPEEVFDVLEKLGEGSYGSVYKAIHKETGQIVAIKQVPVESDLQEIIKEISIMQQCDSPHVVKYYGSYFKNTDLWIVMEYCGAGSVSDIIRLRNKTLTEDEIATILQSTLKGLEYLHFMRKIHRDIKAGNILLNTEGHAKLADFGVAGQLTDTMAKRNTVIGTPFWMAPEVIQEIGYNCVADIWSLGITAIEMAEGKPPYADIHPMRAIFMIPTNPPPTFRKPELWSDNFTDFVKQCLVKSPEQRATATQLLQHPFVRSAKGVSILRDLINEAMDVKLKRQESQQREVDQDDEENSEEDEMDSGTMVRAVGDEMGTVRVASTMTDGANTMIEHDDTLPSQLGTMVINAEDEEEEGTMKRRDETMQPAKPSFLEYFEQKEKENQINSFGKSVPGPLKNSSDWKIPQDGDYEFLKSWTVEDLQKRLLALDPMMEQEIEEIRQKYQSKRQPILDAIEAKKRRQQNF
# How the values were obtained:
# [1] = target: GST-PDX1 T155A (bacterially purified), P52946
# [2] = target: GST-PDX1 WT (bacterially purified), P52946
# [3] = target: Purified recombinant human PDX-1 (Abcam), P52945
# [4] = target: GST-PDX1 T214A (bacterially purified), P52946
# [5] = target: GST-PDX1 T231A (bacterially purified), P52946
# [6] = target: GST-PDX1 T126A (bacterially purified), P52946
# [7] = target: GST-PDX1 T152A (bacterially purified), P52946
# [8] = target: GST-PDX1 T11A (bacterially purified), P52946
# Sequence of GST-PDX1 T11A (bacterially purified), P52946 (P52946 whole entry T11A, looked up): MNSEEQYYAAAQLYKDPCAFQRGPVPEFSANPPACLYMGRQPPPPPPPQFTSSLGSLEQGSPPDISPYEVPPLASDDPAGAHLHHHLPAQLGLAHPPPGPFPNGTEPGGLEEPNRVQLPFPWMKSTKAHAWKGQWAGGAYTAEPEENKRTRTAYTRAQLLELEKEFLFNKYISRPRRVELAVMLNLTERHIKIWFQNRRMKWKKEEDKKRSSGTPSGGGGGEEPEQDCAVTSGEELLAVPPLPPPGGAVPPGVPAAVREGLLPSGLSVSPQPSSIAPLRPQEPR
# Sequence of GST-PDX1 T214A (bacterially purified), P52946 (P52946 whole entry T214A, looked up): as the sequence (P52946 whole entry T11A, looked up) above, with A11T, T214A counted along it
# Sequence of Purified recombinant human PDX-1 (Abcam), P52945 (P52945 whole entry): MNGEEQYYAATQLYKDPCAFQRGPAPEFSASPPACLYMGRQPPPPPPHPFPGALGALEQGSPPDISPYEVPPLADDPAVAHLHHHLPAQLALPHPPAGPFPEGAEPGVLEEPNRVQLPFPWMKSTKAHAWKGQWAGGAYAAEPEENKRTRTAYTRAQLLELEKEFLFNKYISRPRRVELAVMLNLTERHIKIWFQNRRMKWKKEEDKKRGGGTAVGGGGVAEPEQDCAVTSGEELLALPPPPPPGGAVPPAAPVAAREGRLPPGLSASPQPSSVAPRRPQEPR
# Sequence of GST-PDX1 T155A (bacterially purified), P52946 (P52946 whole entry T155A, looked up): as the sequence (P52946 whole entry T11A, looked up) above, with A11T, T155A counted along it
# Sequence of GST-PDX1 T231A (bacterially purified), P52946 (P52946 whole entry T231A, looked up): as the sequence (P52946 whole entry T11A, looked up) above, with A11T, T231A counted along it
# Sequence of GST-PDX1 T126A (bacterially purified), P52946 (P52946 whole entry T126A, looked up): as the sequence (P52946 whole entry T11A, looked up) above, with A11T, T126A counted along it
# Sequence of GST-PDX1 T152A (bacterially purified), P52946 (P52946 whole entry T152A, looked up): as the sequence (P52946 whole entry T11A, looked up) above, with A11T, T152A counted along it
# Sequence of GST-PDX1 WT (bacterially purified), P52946 (P52946 whole entry): as the sequence (P52946 whole entry T11A, looked up) above, with A11T counted along it
protein,measurement,setting,value
B1,"in vitro kinase assay, pan-phospho threonine western blot",[1],"With the exception of T11A, PDX1-WT and other mutants were efficiently threonine phosphorylated"
same,"in vitro kinase assay, pan-phospho threonine western blot",[2],"With the exception of T11A, PDX1-WT and other mutants were efficiently threonine phosphorylated"
same,in vitro kinase assay (32P autoradiography; western blot with phospho-specific antibody),[3],In vitro kinase assays showed that MST1 efficiently phosphorylated PDX1
same,"in vitro kinase assay, pan-phospho threonine western blot",[4],"With the exception of T11A, PDX1-WT and other mutants were efficiently threonine phosphorylated"
same,"in vitro kinase assay, pan-phospho threonine western blot",[5],"With the exception of T11A, PDX1-WT and other mutants were efficiently threonine phosphorylated"
same,"in vitro kinase assay, pan-phospho threonine western blot",[6],"With the exception of T11A, PDX1-WT and other mutants were efficiently threonine phosphorylated"
same,"in vitro kinase assay, pan-phospho threonine western blot",[7],"With the exception of T11A, PDX1-WT and other mutants were efficiently threonine phosphorylated"
same,"in vitro kinase assay, pan-phospho threonine western blot",[8],"With the exception of T11A, PDX1-WT and other mutants were efficiently threonine phosphorylated"

# Reference: patent US20160083733
